Measured values from patent publication US20140050662.

System: PSA activatable agent A10 (compound A10)

enzymatically active prostate specific antigen
fluorescence activation (kinetic fluorescence readings, cleavage of the quenched peptide): Test agent (compound A10-0.5 µM final concentration of agent) was activated in the presence of active PSA (0.1 µM final concentration of activated enzyme)
